Measurements as given in US20220204643A1 (published 2022).

What was measured:
zinc finger protein 8 = molecular target: T1, zinc finger protein 8 (human, UniProt P17098 1-575); experiment: protein array
T1 construct: on protein array; also called ZNF8

[1] = molecular target: T2, ganglioside induced differentiation associated protein 1, transcript variant 2 (human, UniProt Q8TB36 69-358); experiment: protein array
T2 construct: on protein array; also called GDAP1
T2 sequence: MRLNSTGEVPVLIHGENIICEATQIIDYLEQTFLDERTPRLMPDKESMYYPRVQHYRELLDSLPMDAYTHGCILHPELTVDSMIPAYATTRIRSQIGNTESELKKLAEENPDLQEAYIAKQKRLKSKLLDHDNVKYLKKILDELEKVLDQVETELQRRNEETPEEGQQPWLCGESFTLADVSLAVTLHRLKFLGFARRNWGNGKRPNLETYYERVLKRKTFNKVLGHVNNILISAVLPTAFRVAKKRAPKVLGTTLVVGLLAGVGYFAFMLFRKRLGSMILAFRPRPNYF

[2] = molecular target: T3, SATB homeobox 2, transcript variant 2 (human, UniProt Q9UPW6 1-733); experiment: protein array
T3 construct: on protein array; also called SATB2
T3 sequence: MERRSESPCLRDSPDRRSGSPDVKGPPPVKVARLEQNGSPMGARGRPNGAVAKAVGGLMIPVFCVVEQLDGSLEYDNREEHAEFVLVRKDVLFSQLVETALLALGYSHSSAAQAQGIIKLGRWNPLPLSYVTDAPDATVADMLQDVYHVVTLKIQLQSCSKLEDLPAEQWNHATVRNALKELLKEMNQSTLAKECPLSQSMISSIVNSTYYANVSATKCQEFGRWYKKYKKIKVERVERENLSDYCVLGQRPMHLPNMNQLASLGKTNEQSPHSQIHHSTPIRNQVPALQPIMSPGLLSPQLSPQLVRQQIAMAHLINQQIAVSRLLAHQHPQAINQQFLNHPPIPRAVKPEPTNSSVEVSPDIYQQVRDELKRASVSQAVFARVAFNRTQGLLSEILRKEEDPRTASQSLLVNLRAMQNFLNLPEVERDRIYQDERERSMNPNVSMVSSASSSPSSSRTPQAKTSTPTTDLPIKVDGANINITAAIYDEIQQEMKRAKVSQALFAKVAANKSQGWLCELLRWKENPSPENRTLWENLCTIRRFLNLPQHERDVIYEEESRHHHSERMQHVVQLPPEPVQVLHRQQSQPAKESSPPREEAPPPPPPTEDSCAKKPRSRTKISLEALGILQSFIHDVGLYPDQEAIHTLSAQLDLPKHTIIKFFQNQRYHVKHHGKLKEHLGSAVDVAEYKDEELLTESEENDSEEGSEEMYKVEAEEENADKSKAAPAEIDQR

LN608403.1_frag = molecular target: T4, LN608403.1_frag (human)
T4 construct: HuProt array protein; labelled _frag
T4 chain: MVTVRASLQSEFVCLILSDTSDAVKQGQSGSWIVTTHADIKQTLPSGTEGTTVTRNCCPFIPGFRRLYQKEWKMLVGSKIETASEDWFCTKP

[3] = molecular target: T5, JPX transcript, XIST activator (human)
T5 construct: HuProt array protein; labelled _frag
T5 chain: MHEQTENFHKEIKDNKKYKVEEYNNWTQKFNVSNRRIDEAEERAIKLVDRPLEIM

[4] = molecular target: T6, nucleosome assembly protein 1 like 1, transcript variant 1 (human, UniProt P55209 2-388)
T6 construct: HuProt array protein, full-length recombinant from yeast; also called NAP1L1
T6 sequence: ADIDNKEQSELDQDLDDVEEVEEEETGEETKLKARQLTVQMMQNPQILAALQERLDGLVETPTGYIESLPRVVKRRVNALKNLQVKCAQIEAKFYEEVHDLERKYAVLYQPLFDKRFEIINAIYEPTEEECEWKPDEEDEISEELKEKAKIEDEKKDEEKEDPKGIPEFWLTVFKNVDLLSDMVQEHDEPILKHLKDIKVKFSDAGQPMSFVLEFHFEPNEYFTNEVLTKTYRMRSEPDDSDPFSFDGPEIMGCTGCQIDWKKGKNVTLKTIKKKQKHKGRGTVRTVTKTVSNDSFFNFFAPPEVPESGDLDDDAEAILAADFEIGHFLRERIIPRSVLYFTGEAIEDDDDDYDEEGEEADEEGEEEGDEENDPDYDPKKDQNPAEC

[5] = molecular target: T7, nudE neurodevelopment protein 1, transcript variant 1 (human, UniProt Q9NXR1 1-335)
T7 construct: HuProt array protein, full-length recombinant from yeast; also called NDE1
T7 sequence: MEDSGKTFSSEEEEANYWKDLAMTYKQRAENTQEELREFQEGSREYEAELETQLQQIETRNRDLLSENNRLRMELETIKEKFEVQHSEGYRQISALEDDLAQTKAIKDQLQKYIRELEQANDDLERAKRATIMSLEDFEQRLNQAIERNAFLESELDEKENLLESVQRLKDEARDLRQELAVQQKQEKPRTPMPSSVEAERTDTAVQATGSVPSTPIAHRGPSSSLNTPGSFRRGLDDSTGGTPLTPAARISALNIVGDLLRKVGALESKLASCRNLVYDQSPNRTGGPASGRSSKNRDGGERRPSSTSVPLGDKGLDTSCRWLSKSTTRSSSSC

[6] = molecular target: T8, TruB pseudouridine synthase family member 1 (human, UniProt Q8WWH5 2-349)
T8 construct: HuProt array protein, full-length recombinant from yeast; also called TRUB1
T8 sequence: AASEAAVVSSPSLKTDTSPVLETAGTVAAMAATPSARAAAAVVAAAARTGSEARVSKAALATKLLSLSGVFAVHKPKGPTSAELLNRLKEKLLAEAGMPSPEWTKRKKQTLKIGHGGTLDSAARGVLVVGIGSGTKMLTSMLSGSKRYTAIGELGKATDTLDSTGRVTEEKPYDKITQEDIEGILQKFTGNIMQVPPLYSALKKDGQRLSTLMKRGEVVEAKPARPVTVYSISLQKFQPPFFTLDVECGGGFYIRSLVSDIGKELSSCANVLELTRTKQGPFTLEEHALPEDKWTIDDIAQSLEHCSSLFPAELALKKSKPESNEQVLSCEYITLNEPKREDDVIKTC

[7] = molecular target: T9, phospholipid scramblase 4, transcript variant X4 (human, UniProt Q9NRQ2 1-329)
T9 construct: HuProt array protein, full-length recombinant from yeast; also called PLSCR4
T9 chain: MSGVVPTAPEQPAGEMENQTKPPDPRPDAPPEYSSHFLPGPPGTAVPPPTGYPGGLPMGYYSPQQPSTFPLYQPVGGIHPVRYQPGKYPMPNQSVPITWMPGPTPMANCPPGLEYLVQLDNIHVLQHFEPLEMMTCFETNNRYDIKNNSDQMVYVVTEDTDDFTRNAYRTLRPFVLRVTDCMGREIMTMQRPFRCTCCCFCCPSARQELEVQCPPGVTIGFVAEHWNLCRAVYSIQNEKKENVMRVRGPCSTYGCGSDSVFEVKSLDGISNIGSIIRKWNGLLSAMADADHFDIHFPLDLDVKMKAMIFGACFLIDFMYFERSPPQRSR

[8] = molecular target: T10, sorting nexin 33, transcript variant 1 (human, UniProt Q8WV41 1-574)
T10 construct: HuProt array protein, full-length recombinant from yeast; also called SNX33
T10 sequence: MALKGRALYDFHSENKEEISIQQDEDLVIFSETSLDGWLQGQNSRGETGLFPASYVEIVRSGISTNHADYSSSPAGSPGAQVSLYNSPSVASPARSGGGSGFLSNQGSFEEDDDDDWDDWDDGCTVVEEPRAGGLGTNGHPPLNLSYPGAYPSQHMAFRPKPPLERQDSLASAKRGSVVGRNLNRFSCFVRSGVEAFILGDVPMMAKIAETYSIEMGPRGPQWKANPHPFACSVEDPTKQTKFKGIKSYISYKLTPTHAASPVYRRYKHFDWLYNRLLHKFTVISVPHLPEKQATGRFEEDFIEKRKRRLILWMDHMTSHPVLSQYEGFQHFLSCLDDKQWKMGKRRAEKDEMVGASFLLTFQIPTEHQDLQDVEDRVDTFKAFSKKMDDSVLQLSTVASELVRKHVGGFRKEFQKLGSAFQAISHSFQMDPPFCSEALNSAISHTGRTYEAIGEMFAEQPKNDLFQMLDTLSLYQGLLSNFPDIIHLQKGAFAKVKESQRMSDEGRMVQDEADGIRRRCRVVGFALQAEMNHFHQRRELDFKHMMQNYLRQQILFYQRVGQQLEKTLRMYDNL

[9] = molecular target: T11, KH RNA binding domain containing, signal transduction associated 2, transcript variant 2 (human, UniProt Q5VWX1 1-349)
T11 construct: HuProt array protein, full-length recombinant from yeast; also called KHDRBS2
T11 sequence: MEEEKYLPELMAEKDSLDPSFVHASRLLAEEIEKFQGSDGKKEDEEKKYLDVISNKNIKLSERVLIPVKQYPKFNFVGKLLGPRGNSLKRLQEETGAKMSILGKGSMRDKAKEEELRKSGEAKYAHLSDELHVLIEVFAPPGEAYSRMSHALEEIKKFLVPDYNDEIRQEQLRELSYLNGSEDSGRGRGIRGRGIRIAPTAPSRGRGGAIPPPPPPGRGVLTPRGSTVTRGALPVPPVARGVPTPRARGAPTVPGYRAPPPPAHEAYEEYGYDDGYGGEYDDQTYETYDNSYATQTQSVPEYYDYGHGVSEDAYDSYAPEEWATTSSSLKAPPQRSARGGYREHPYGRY

T1 sequence (P17098 whole entry): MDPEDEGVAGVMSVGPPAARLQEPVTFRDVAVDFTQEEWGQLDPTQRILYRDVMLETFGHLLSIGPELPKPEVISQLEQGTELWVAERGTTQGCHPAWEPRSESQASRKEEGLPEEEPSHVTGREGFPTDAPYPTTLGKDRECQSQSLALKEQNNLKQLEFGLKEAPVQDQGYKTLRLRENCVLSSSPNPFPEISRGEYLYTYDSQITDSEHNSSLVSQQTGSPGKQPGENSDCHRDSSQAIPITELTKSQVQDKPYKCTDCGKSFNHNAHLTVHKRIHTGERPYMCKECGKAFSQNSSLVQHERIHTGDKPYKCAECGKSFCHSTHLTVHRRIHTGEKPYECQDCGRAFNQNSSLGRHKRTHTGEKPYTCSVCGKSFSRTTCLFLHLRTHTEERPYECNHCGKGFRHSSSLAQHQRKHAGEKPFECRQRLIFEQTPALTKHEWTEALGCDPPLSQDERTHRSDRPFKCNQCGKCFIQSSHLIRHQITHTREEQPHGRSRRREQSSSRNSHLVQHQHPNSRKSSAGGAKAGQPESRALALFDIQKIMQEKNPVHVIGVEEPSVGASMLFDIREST

B1: TBRE1017 (antibody, V domains shown)
VH: QVQLVQSGAEVKKPGASVKVSCKASGYNFRDYYMHWVRQAPGQGLEWMGWINPNSGGTISAQNFQGRVTMTRDTSISTAYMEVNSLRSDDTAVYYCAVGMVTDGFEIWGQGTLVTVSS
VL: PYELTQPPSVSVSPGQTARITCSGDALPNENAFWYQQKPGQAPVLVIYEDIKRPSGIPERFSGSSSGTTVTLTISGVQAEDEADYYCQSVDITSTWVFGGGTKLTVLG
notes: VH/VL only
Zinc finger protein 8
  binding result: binds
[1]
  binding result: binds
[2]
  binding result: binds

B2: TBRE1045 (antibody, V domains shown)
VH: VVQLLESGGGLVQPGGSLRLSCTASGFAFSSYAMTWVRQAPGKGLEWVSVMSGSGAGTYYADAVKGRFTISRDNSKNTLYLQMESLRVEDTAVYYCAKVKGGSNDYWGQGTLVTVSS
VL: PYVLTQPPSVSVAPGQTARITCGGNNIGSKSVHWYQQKPGQAPVMVVYADRERPSGIPERLSGSNFGNTATLTISRVEAGDEADYYCQVWDSNNDHREVFGGGTKLTVLG
notes: detected with anti-human IgG Fc
LN608403.1_frag
  binding result: binds
[3]
  binding result: binds

B3: TCER1001 (antibody, V domains shown)
VH: EVQLVESGGGLVQPGRSLRLSCAASGFTFDDYAMHWVRQAPGKGLEWVSGISWNSGSIGYADSVKGRFTISRDNAKNSLYLQMNSLRAEDTALYYCAKDLLGFRDQRNYYGMDVWGQGTTVTVSS
VL: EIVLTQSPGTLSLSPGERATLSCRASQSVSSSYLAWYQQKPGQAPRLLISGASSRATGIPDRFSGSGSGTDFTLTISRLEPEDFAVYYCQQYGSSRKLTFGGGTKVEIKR
notes: as for B2
[4]
  binding result: binds

B4: TCER1002 (antibody, V domains shown)
VH: QVQLQESGPGLVKPSETLSLSCTVSGASMNNYYWSWIRQSAGKGLEWIGRIYSSGDTDYNPSLKTRVTMSIDTSKNQFSLNLDSVTAADTATYYCARSFYDTLFYFENWGQGTLVTVSS
VL: DIQMTQSPSTLSASVGDRVTITCRASQSISVWLAWYQQKPGKAPKLLIYKASTLEAGVPSRFSGSGSGTEFSLTISGLQPDDFGTYFCQHYDSYPWTFGQGTKVEMK
notes: as for B2
[5]
  binding result: binds

B5: TCER1003 (antibody, V domains shown)
VH: QITLKESGPTLVKPTQTLTLTCTFSGFSLTTTDVGVGWIRQPPGKALEWLTIIYWDDDERYSPSLKSRLTITKDTSKNQVVLSMTNMDPVDTATYYCARVYSTKWDFDYWGQGTLVTVSS
VL: VSSELTQDPAVSVALGQTVRITCQGDSLRRYYVSWYRQKPGEAPVVVIYGKNNRPSWIPDRLSGSSSGNTASLTITGAQAEDEADYYCCSRDSSGNPWVFGGGTKLTVLG
notes: as for B2
[6]
  binding result: binds
[7]
  binding result: binds

B6: TCER1006 (antibody, V domains shown)
VH: EVQLVQSGAEVKKPGESLKISCKGSGYSFTSFWIGWVRQMPGKGLEWMGIIFPADSDTRYSPSFQGQVIISVDKSISTAYLQWSSLKASDTAMYYCARRGVSGGSAWTYYNFFDPWGQGTLVTVAS
VL: PSVLTQPPSVSAAPGQKVTISCSGSSSNIDNNYVSWYQQLPGTAPKLLIYENNKRASGIPDRFSGSKSGTSATLGITGLQTGDEADYYCGTWDSSLSPGGVFGGGTKLTVLG
notes: as for B2
[8]
  binding result: binds

B7: TCHO1001 (antibody, V domains shown)
VH: PVHLVQSGAEVKKPGSSVKVSCKLSGGIFSYFAIIWVRQAPGQGLEWMGTIIPIFGTSNYAEKFQDRVAIVADEATSTVYMEVNSLRSEDTAIYFCARDSEVEKSDGYMASTAEYFQLWGQGTLVTVSS
VL: not shown
notes: detected with anti-human IgG Fc; also called TCH01001
[9]
  binding result: binds
